This is an account of results in the supplement of paper PMC12764529.

The nature of the data set: folding stability dG unfold (combined trypsin and chymotrypsin); higher = more stable. The method, then:
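Folding stability of de novo designed mini-proteins (<80 aa, no Cys; designed by TrROS, TrMRF, ProteinMPNN and the joint model) was measured by cDNA display proteolysis with trypsin and chymotrypsin. Each protease was used at 11 concentrations in a threefold dilution series plus a no-protease condition. K50 was inferred by Bayesian fitting of sequencing counts, and dG unfold was derived against a sequence-predicted unfolded-state K50 (Tsuboyama et al. method). Sequences shown include variable-length N-terminal GS-type padding (SAGGSAGG...) inside a display construct carrying a PA tag. Rows were kept only if the AF2 dimer inter-PAE was >15, to exclude likely homo-oligomers.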
Take “SAGGSAGGSAGGTIEELAEKLPNVDLKPVEPGPGMRRIKAQPPNGKKFTIMVDDGKIHIQSAGGSAGGSAGG [r7_26_TrROS]”: the “folding stability dG unfold” value was less than -1 kcal/mol.
As for “SAGGSAGGSAGGVVSPSSEPVEMTVEEVILETERVPESGESLRPLPVRRVLRTVTNFGLSAGGSAGGSAGGS [r10_122_JUSTAS]”, the “folding stability dG unfold” value is less than -1 kcal/mol.
In the case of “SAGGSAGGSAGIKIPSNYKYKIEKSKDDYYEIYTEDKNKKFIVPKNAPIVVFEDNTVYVKSAGGSAGGSAGG [r17_49_TrMRF]” it was less than -1 kcal/mol.
The figure for “SAGGSAGGSAGIKVDQNPESNMFSVKIRNDGKEKTIEIDMPPGEPPDIDDLAKKLGIEVVSAGGSAGGSAGG [r11_1053_TrROS]” is less than -1 kcal/mol; for “SAGGSAGGSAGKKKPPPKVTLVIRVKMSPEEVKKLAELFPDAKVTVTYDEETGLLTVTFDSAGGSAGGSAGG [r17_254_TrROS_Hall]” it is greater than 6 kcal/mol; for “SAGGSAGGSAGKNVPFRWRIRDPKNGNEKTIDVPMDSPEDMNRAADELQKKFPGYKVEPYSAGGSAGGSAGG [r11_233_TrROS]” it is less than -1 kcal/mol.
In the case of “SAGGSAGGSAGKYISVDELRKNGDPDEAERVVKKIMEKFPGPKIKPIEWDKDGNHMFKIKSAGGSAGGSAGG [r11_365_TrROS]” it was less than -1 kcal/mol; in that of “SAGGSAGGSAGMKIFKSKEEAKKAAGPPVELKVKKVPPGSIGKGDPNDTAYLVELKPKEKSAGGSAGGSAGG [r11_168_TrMRF]”, less than -1 kcal/mol; in that of “SAGGSAGGSAGMKKLVKITARVPDEKGNPILVEYEEEVDLKPSDSLPVPEGVLEEIEILESAGGSAGGSAGG [r11_664_JUSTAS]”, less than -1 kcal/mol.
“SAGGSAGGSAGMMTLKTGSVTIVRPVPAEEAPAPPEVPGAEELTRTEVVKTEVELLPAELLSAGGSAGGSAG [r3_488_JUSTAS]”: the “folding stability dG unfold” value is less than -1 kcal/mol.
The figure for “SAGGSAGGSAGMTPLYFRVERVDPASGGSLEEVVEIDPAEREAVVEELRAVPGLVRVELVSAGGSAGGSAGG [r17_438_JUSTAS]” is less than -1 kcal/mol; for “SAGGSAGGSAGPLVLVKELKSSRPVFDKNGKLIGTKTEVLVEAELLAPPANPDDPRYKETSAGGSAGGSAGG [r11_131_TrMRF]” it is less than -1 kcal/mol; for “SAGGSAGGSAGPPGEPKPKPERKTVHINIPYPPGHPEMREKARELANELQDEGAKVEIYWSAGGSAGGSAGG [r11_519_TrROS]” it is less than -1 kcal/mol.
In the case of “SAGGSAGGSAGPTTSSRTVKPGEVEEVKEAIEAQGVSVTVTLDPSTGTYTVGVTNPGVLGSAGGSAGGSAGG [r11_1043_JUSTAS]”, the “folding stability dG unfold” value is less than -1 kcal/mol.
The figure for “SAGGSAGGSAGSEKLEKIKEELKKKGYNDVEVKPAGPDPSVVLVKVKENKDIIIKIENEESAGGSAGGSAGG [r11_765_JUSTAS]” is less than -1 kcal/mol; for “SAGGSAGGSAGSMTVTVLEVVPGVPEVVLRRGDTEIRVPASRYTLERDADTTTLVVPEAASAGGSAGGSAGG [r17_403_JUSTAS]” it is less than -1 kcal/mol; for “SAGGSAGGSAGSPAAERIAKYMEKQGGDNIDIEPVGPRPGYVRIKMKNNRPITIPLKEGDSAGGSAGGSAGG [r11_765_TrROS]” it is less than -1 kcal/mol.
In the case of “SAGGSAGGSAGTRTINMPNPHQARELIKEQPPGKPITIHMPNPEWAKELADAPGVPIQMHSAGGSAGGSAGG [r11_1071_TrROS]” it was less than -1 kcal/mol; in that of “SAGGSAGGSAIGLKDAVPGIENVAKALGAKAKAELKVLPDGKPYLVAKLYKDGKPLGELKVDSAGGSAGGSA [r18_369_TrMRF]”, less than -1 kcal/mol; in that of “SAGGSAGGSAIKIPPGYWVRGEFPNVTRHIPIDDIDELKKTFPGNPIRDIEVYDPEDGKPISAGGSAGGSAG [r3_134_TrROS]”, less than -1 kcal/mol.
In the case of “SAGGSAGGSAIVEKIAKEFGFPAKIEVKRERNPGKWVVIPVRVRDPNGGKTWERKIHLPPNQSAGGSAGGSA [r18_313_TrROS]” it was less than -1 kcal/mol; in that of “SAGGSAGGSAKHDVKIDDVERMPNPYRFTITFPGNGKPIPIPFRPNMSIDEMKKEAKELAKSAGGSAGGSAG [r3_142_TrROS]”, less than -1 kcal/mol; in that of “SAGGSAGGSAKIKLENPDNMPPEELADTIAEEAREQHPDDKNIEIPFQFPNGNPWRITVDVPSAGGSAGGSA [r18_449_TrROS]”, less than -1 kcal/mol.
As to “SAGGSAGGSAMEAEATPIPLETEEFEIVVTILPGGTARVTTTPPEDGVPTESTVSVETVRALSAGGSAGGSA [r18_247_JUSTAS]”, the “folding stability dG unfold” value is less than -1 kcal/mol.
The figure for “SAGGSAGGSAMLVELEAGRVIEVPDATPEETRERVRAAVPPEVADEVRIVRAYDPERPVELSAGGSAGGSAG [r3_340_JUSTAS]” is less than -1 kcal/mol; for “SAGGSAGGSAMNVKFFKLSENELRIEYNEIEEFEDGSLSEEIKTEILKLNLPEDDKKVKELLSAGGSAGGSA [r18_215_JUSTAS]” it is less than -1 kcal/mol.
In the case of “SAGGSAGGSAMSVSVSSPENAEKLAKEIKEKNPNEIPKITKGSGSNSYTLTLPSGKNIKVSSSAGGSAGGSA [r18_154_JUSTAS]” it was less than -1 kcal/mol; in that of “SAGGSAGGSAMTLRDIARELAEKHGEPYKIKISHPNGRKREFNPDDLDRIPPGPWEVEIERPSAGGSAGGSA [r18_394_TrROS]”, less than -1 kcal/mol; in that of “SAGGSAGGSAMTSVKRSSGSWSITITTPDSTTTTTKAATEEEVQAEVEELKKPGIKVELSPESAGGSAGGSA [r18_103_JUSTAS]”, less than -1 kcal/mol.
Regarding “SAGGSAGGSANPRTITVQYPVDPNGKPLPAEELADELQNEPFKVTDPQWNPEDGYVEDTIEVSAGGSAGGSA [r18_466_TrROS]”, the “folding stability dG unfold” value was less than -1 kcal/mol.
On to “SAGGSAGGSAPDMYRIRAKFPDGKPFPIEFNPEDGQIEVWDGNKEQTIPPGKPIKIDKIEPVSAGGSAGGSA [r18_144_TrROS]”, for which the “folding stability dG unfold” value was less than -1 kcal/mol.
“SAGGSAGGSAPEFVVEGSEEEAEAVFERIKAERPEEFEATDISTVSAVPPVPRYTPEGVLVSAGGSAGGSAG [r3_89_JUSTAS]”: the “folding stability dG unfold” value was less than -1 kcal/mol.
The figure for “SAGGSAGGSASAEELAEALRREHPDAEVTVTVTPVPREVGPRPVLEREVTVESVRSPEEPASAGGSAGGSAG [r3_118_JUSTAS]” is less than -1 kcal/mol.
The figure for “SAGGSAGGSASAWEQYPNTTPGTTSKTDDVTVRTLTFPNPTTVVTVTEFPGGEVTVTTVPTPSAGGSAGGSA [r18_26_JUSTAS]” is less than -1 kcal/mol; for “SAGGSAGGSASMRTITITSSTSPSGPPLPAAELAAELAKEGYTVTDPRRVPAEGKLVFTVVASAGGSAGGSA [r18_466_JUSTAS]” it is less than -1 kcal/mol; for “SAGGSAGGSASSWTLLSTEKLGSKTRTTMNDPANGKTVTIETDPANGSKVVKVENKETEIESAGGSAGGSAG [r3_297_JUSTAS]” it is less than -1 kcal/mol.
The figure for “SAGGSAGGSATLEQIKEAIKDSPPGEPARIPFPNGYTIRIDMRYDKEENKIDDFDIEIEPPNSAGGSAGGSA [r18_202_TrROS]” is less than -1 kcal/mol.
Consider “SAGGSAGGSAYFVRIDNGPTIPIPGMSPDEAKEQLKEYLPPPNKENLKITDVYSPDNGKPLSAGGSAGGSAG [r3_340_TrROS]”, for which the “folding stability dG unfold” value was less than -1 kcal/mol.
In the case of “SAGGSAGGSDKFKIDNIYPDPDMWVYRIKFPKGKSHTFPIPEENIDEFAEDDGFNVEPLGPVPSAGGSAGGS [r12_676_TrROS]” it was less than -1 kcal/mol; in that of “SAGGSAGGSEVTEFTGTIEDPNSSTVIEVKTKVIPLPNGTPVTITETTTTTGEKTTTTTTTFASAGGSAGGS [r12_619_JUSTAS]”, less than -1 kcal/mol; in that of “SAGGSAGGSGDKSPPLVPTVTLKTTDPDAVEKAVKAAGVAVTRYPGKGYYTFRKADVEKILKSSAGGSAGGS [r12_325_TrMRF]”, less than -1 kcal/mol.
In the case of “SAGGSAGGSGKIPKLIKEIGIPYEVKSIKVTTGKDDKPTVEIEFLPDVPEEDREKIKKAIEEESAGGSAGGS [r12_352_TrMRF]” it was less than -1 kcal/mol; in that of “SAGGSAGGSGMEPTFVPVEEIYYNPESNEISKTKSTVVIPPDGTVETFTTTEKFKKPPNASLESAGGSAGGS [r12_116_JUSTAS]”, less than -1 kcal/mol.
As to “SAGGSAGGSGMPIVVTHPSGVGLDEYIPEPYVVTMREPDSVIKVTYDPATGTVTTEVDDGAARSAGGSAGGS [r12_243_JUSTAS]”, the “folding stability dG unfold” value is less than -1 kcal/mol.
Regarding “SAGGSAGGSGMPVVLLEATFDPNNPGTTYRLTTVDPNTGGVAESEIPASEAEARGLGPLDVLESAGGSAGGS [r12_123_JUSTAS]”, the “folding stability dG unfold” value is less than -1 kcal/mol.
The figure for “SAGGSAGGSISPEAAKEGPLTIEVSWMHPDGRTEEEEFPIGQPIKIPPDFKDRPPQITSIRPRSAGGSAGGS [r12_161_TrROS]” is less than -1 kcal/mol; for “SAGGSAGGSKILEIERDPEKGLVKITVPPDVPPNPHPRLLKVEPKNNKYIVTFPMSPSDEIELSAGGSAGGS [r20_37_JUSTAS]” it is less than -1 kcal/mol; for “SAGGSAGGSKLKIEQDPSDGFLQIQIPPGDEEVKIKFNGEEIEFPLPPGQPIWIPANNWKIEPSAGGSAGGS [r20_26_TrROS]” it is less than -1 kcal/mol.
In the case of “SAGGSAGGSLVELEEEDPSVPVRRRYFIEKPSDGKVKVKEETVVPEPGEVVRSERVISLEEFEKSAGGSAGG [r6_652_JUSTAS]” it was less than -1 kcal/mol.
Consider “SAGGSAGGSMDDTEEESSSVSRFLENGERYTTRTKTTTRIRPDGTEEVEVEVTTTPLPPDVPLSAGGSAGGS [r12_927_JUSTAS]”, for which the “folding stability dG unfold” value is less than -1 kcal/mol.
The figure for “SAGGSAGGSMELPSGVVVKSTSEDPAAKTVTVSFPSGAVYTLPLPDPNVSQPVTVKTPPGAGVSAGGSAGGS [r12_149_JUSTAS]” is less than -1 kcal/mol; for “SAGGSAGGSMKTVTIEVKRPSPDITLEDIKEELLKKNPEVEEVEVEEYPEEGLYKVKVTIKPKSAGGSAGGS [r20_31_JUSTAS]” it is less than -1 kcal/mol.
In the case of “SAGGSAGGSMKVELIRTEEGKVVATEFFPVPLLLPGGVPALLEGSRTIKTIPVKDPEKAKELLSAGGSAGGS [r12_915_JUSTAS]”, the “folding stability dG unfold” value is less than -1 kcal/mol.
